Source: PMC2600746

Biological target: GST-FoxK[414-654] (Drosophila melanogaster, UniProt A0JL24 414-654)
Assay: competition EMSA

B1: GAS (dsDNA)
DNA 1: GCGTCTTTTCCGGGAAATACAT
DNA 2: ATGTATTTCCCGGAAAAGACGC
  binding result: no binding
